Measured values from patent publication US20200270588A1, “GLUCOSYL TRANSFERASE POLYPEPTIDES AND METHODS OF USE” (Syngenta Participations AG, priority 2017, published 2020).

Test: LC/MS plate assay of crude E. coli extracts, Zea mays bx8 derivatives, herbicide V
Type: biochemical
Conditions: for activity with herbicide V: LC/MS; for activity relative to like-expressed Zea mays bx9 w/t extract: herbicide V, LC/MS peaks, estimate
Protocol: In an alternative method for assaying the various enzymes, the test glucosyl transferase enzyme is reacted with substrates exactly as above except that the assay is stopped by adding an equal volume of acetonitrile. Alternatively 50 or 100 μl samples from assay reactions are added to 500 μl ethyl acetate to stop the reaction. In this case samples are then vortexed and 400 μl of the ethyl acetate partition removed, dried down, and resuspended in 100 μl 80:20 acetonitrile/water. The formation of product gluco side and/or disappearance of substrate test herbicide is then monitored directly by LC/MS. Samples are analyzed by LC-MS using an Agilent 1290 liquid chromatography system and Thermo Q-Exactive mass spectrometer. The chromatography is achieved on a Waters Acquity C18 BEH (50×2.1 mm) 1.7 μm particle size column, using a 6 minute gradient run of Water (0.2% formic acid) and Acetonitrile. The Q-Exactive is operated in positive ionisation electrospray mode, using Full scan-AIF mode, at 35,000 resolution, between 100-800 m/z. All analytes are identified from the full scan data to within at least 5 ppm accuracy of their predicted pseudo-molecular ion [M+H]^+ m/z value. In order to obtain quantitative data standard curves are run using herbicides and herbicide glucosides synthesized as standards. Where these synthetic glucosides were not available the LC/MS assay could only be used to provide relative data.
The glucosyl transferase activities of the mutant bx8-derived polypeptides expressed in these strains were initially assayed versus herbicide V as described in Example 1. The partly purified C-terminally his tagged w/t bx8 enzyme (SEQ ID No: 2) catalyzed glucosyl transfer to herbicide V at a low rate estimated to be less than about 0.002/s at 1 mM herbicide V which, because of a relatively high background of UDP formation in the DMSO (no substrate reagent control) was difficult to quantify using the luminescence assay. Thus further assays were run by LC/MS using which technique the formation of an O-beta glucosyl glucoside of herbicide V could more easily be confirmed but only quantified in a relative sense. Thus the various derivatives of C-terminally his tagged Zea mays bx8 SEQ ID No:2 were cloned and expressed in E. coli BL21 (DE3) as described in Example 1 and assayed in plates as crude extracts, as in Example 2, but monitored by LCMS rather than the luminescence assay.
The different stereoisomer standards chromatographed distinctly on LC (FIGS. 8A-8H). By comparing the LC elution profiles of the standards with the enzyme products at the correct mass it was possible to characterize which polypeptides catalyzed the formation of which O-glucosides. Assay samples and glucoside conjugate standards are run using the identical chromatographic conditions to allow us to identify the conjugate isomer formed in the assay. In short, as would be expected for inverting glucosyl transferases all of the bx enzymes tested produced beta glucoside products (from the alpha-UDP-glucose substrate) from all herbicides tested. But there can be subtle variations between enzymes in stereochemistry of the products made at other chiral centers.

Molecule | activity with herbicide V | activity relative to like-expressed Zea mays bx9 w/t extract | activity relative to like-expressed Zea mays bx9 w/t extract (listed as 50) | activity relative to like-expressed Zea mays bx9 w/t extract (listed as SEQ ID No 40)
SEQ ID NO: 50: zmBX8/zmBX9 hybrid polypeptide (protein, Hybrid sequence between Zea mays Bx8 and Bx9 sequences, zmBX8/zmBX9 hybrid polypeptide) MAASCGGRVVVFPFPFQGHFNPVMRLARALHARGVGITVFHTAGARAPDPADYPADYRFVPVPVEVAPELMASEDIAAIVTALNAACEAPFRDRLSALLSAADGEAGEAGGRVRCVLTDVSWDAVLSAARGLGVPALGVMTASAATFRVYMAYRTLVDKGYLPVREERKDDAVAELPPYRVKDLLRHETCDLEEFADLLGRVIAAARLSSGLIFHTFPFIEAGTLGEIRDDMSVPVYAVAPLNKLVPAATASLHGEVQADRGCLRWLDAQRARSVLYVSFGSMAAMDPHEFVELAWGLADAGRPFVWVVRPNLIRGFESGALPDGVEDRVRGRGVVVSWAPQEEVLAHPAVGGFFTHCGWNSTVEAISEGVPMVCCPRHGDQFGNMRYVCDVWKVGTELVGEQLERGQVKAAIDRLFGTKEGEEIKERMKEFKIAAAKGIGIGVDVDETASPRTDLTDLVDLIKSF | active | about a third to a half | up to about half | –
SEQ ID NO: 51: zmBX8/zmBX9 hybrid polypeptide (bx8/bx9 hybrid 2) (protein, Hybrid sequence between Zea mays Bx8 and Bx9 sequences) MAASCGGRVVVFPFPFQGHFNPVMRLARALHARGVGITVFHTAGARAPDPADYPADYRFVPVPVEVAPELMASEDIAAIVTALNAACEAPFRDRLSALLSAADGEAGEAGGRVRCVLTDVSWDAVLSAARGLGVPALGVMTASAATFRVYMAYRTLVDKGYLPVREERKDDAVAELPPYRVKDLLRHETCDLEEFADLLGRVIAAARLSSGLIFHTFPFIEAGTLGEIRDDMSVPVYAVAPLNKLVPAATASLHGEVQADRGCLRWLDAQRARSVLYVSFGSMAAMDPHEFVELAWGLADAGRPFVWVVRPNLIRGFESGALPDGVEDRVRGRGVVVSWAPQEEVLAHPAVGGFFTHCGWNSTVEAVSEGVPMICHPRHGDQFGNMRYVCDVWKVGTELVGEQLERGQVKAAIDRLFGTKEGEEIKERMKEFKIAAAKGIGIGVDVDETASPRTDLTDLVDLIKSF | active | – | – | –
SEQ ID NO: 40: I374V, H376C double mutant of Zea mays bx8 (protein, Mutated Zea mays Bx8 protein sequence) MAASCGGRVVVFPFPFQGHFNPVMRLARALHARGVGITVFHTAGARAPDPADYPADYRFVPVPVEVAPELMASEDIAAIVTALNAACEAPFRDRLSALLSAADGEAGEAGGRVRCVLTDVSWDAVLSAARGLGVPALGVMTASAATFRVYMAYRTLVDKGYLPVREERKDDAVAELPPYRVKDLLRHETCDLEEFADLLGRVIAAARLSSGLIFHTFPFIEAGTLGEIRDDMSVPVYAVAPLNKLVPAATASLHGEVQADRGCLRWLDAQRARSVLYVSFGSMAAMDPHEFVELAWGLADAGRPFVWVVRPNLIRGFESGALPDGVEDRVRGRGVVVSWAPQEEVLAHPAVGGFFTHCGWNSTVEAVSEGVPMVCCPRHGDQYGNARYVCHVWKVGTEVAGDQLERGEIKAAIDRLMGGSEEGEGIRKRMNELKIAADKGIDESAGSDLTNLVHLINSY | detectable activity | about a third to a half | – | up to about half
E256V, R265Q: double mutant of Zea mays bx8 (protein, Mutated Zea mays Bx8 protein sequence) MAASCGGRVVVFPFPFQGHFNPVMRLARALHARGVGITVFHTAGARAPDPADYPADYRFVPVPVEVAPELMASEDIAAIVTALNAACEAPFRDRLSALLSAADGEAGEAGGRVRCVLTDVSWDAVLSAARGLGVPALGVMTASAATFRVYMAYRTLVDKGYLPVREERKDDAVAELPPYRVKDLLRHETCDLEEFADLLGRVIAAARLSSGLIFHTFPFIEAGTLGEIRDDMSVPVYAVAPLNKLVPAATASLHGVVQADRGCLQWLDAQRARSVLYVSFGSMAAMDPHEFVELAWGLADAGRPFVWVVRPNLIRGFESGALPDGVEDRVRGRGVVVSWAPQEEVLAHPAVGGFFTHCGWNSTVEAVSEGVPMICHPRHGDQYGNARYVCHVWKVGTEVAGDQLERGEIKAAIDRLMGGSEEGEGIRKRMNELKIAADKGIDESAGSDLTNLVHLINSY | detectable activity | – | – | –
A246T, E256V: double mutant of Zea mays bx8, printed A248T, E256V in b223 (protein, Mutated Zea mays Bx8 protein sequence, double mutant of Zea mays bx8, printed A248T, E256V) MAASCGGRVVVFPFPFQGHFNPVMRLARALHARGVGITVFHTAGARAPDPADYPADYRFVPVPVEVAPELMASEDIAAIVTALNAACEAPFRDRLSALLSAADGEAGEAGGRVRCVLTDVSWDAVLSAARGLGVPALGVMTASAATFRVYMAYRTLVDKGYLPVREERKDDAVAELPPYRVKDLLRHETCDLEEFADLLGRVIAAARLSSGLIFHTFPFIEAGTLGEIRDDMSVPVYAVAPLNKLVPTATASLHGVVQADRGCLRWLDAQRARSVLYVSFGSMAAMDPHEFVELAWGLADAGRPFVWVVRPNLIRGFESGALPDGVEDRVRGRGVVVSWAPQEEVLAHPAVGGFFTHCGWNSTVEAVSEGVPMICHPRHGDQYGNARYVCHVWKVGTEVAGDQLERGEIKAAIDRLMGGSEEGEGIRKRMNELKIAADKGIDESAGSDLTNLVHLINSY | detectable activity | – | – | –
D170E, A72P, A174P: triple mutant of Zea mays bx8 (protein, Mutated Zea mays Bx8 protein sequence) MAASCGGRVVVFPFPFQGHFNPVMRLARALHARGVGITVFHTAGARAPDPADYPADYRFVPVPVEVAPELMPSEDIAAIVTALNAACEAPFRDRLSALLSAADGEAGEAGGRVRCVLTDVSWDAVLSAARGLGVPALGVMTASAATFRVYMAYRTLVDKGYLPVREERKEDAVPELPPYRVKDLLRHETCDLEEFADLLGRVIAAARLSSGLIFHTFPFIEAGTLGEIRDDMSVPVYAVAPLNKLVPAATASLHGEVQADRGCLRWLDAQRARSVLYVSFGSMAAMDPHEFVELAWGLADAGRPFVWVVRPNLIRGFESGALPDGVEDRVRGRGVVVSWAPQEEVLAHPAVGGFFTHCGWNSTVEAVSEGVPMICHPRHGDQYGNARYVCHVWKVGTEVAGDQLERGEIKAAIDRLMGGSEEGEGIRKRMNELKIAADKGIDESAGSDLTNLVHLINSY | detectable activity | – | – | –
V367I, H376C: double mutant of Zea mays bx8 (protein, Mutated Zea mays Bx8 protein sequence) MAASCGGRVVVFPFPFQGHFNPVMRLARALHARGVGITVFHTAGARAPDPADYPADYRFVPVPVEVAPELMASEDIAAIVTALNAACEAPFRDRLSALLSAADGEAGEAGGRVRCVLTDVSWDAVLSAARGLGVPALGVMTASAATFRVYMAYRTLVDKGYLPVREERKDDAVAELPPYRVKDLLRHETCDLEEFADLLGRVIAAARLSSGLIFHTFPFIEAGTLGEIRDDMSVPVYAVAPLNKLVPAATASLHGEVQADRGCLRWLDAQRARSVLYVSFGSMAAMDPHEFVELAWGLADAGRPFVWVVRPNLIRGFESGALPDGVEDRVRGRGVVVSWAPQEEVLAHPAVGGFFTHCGWNSTVEAISEGVPMICCPRHGDQYGNARYVCHVWKVGTEVAGDQLERGEIKAAIDRLMGGSEEGEGIRKRMNELKIAADKGIDESAGSDLTNLVHLINSY | detectable activity | – | – | –
V367I, I374V: double mutant of Zea mays bx8 (protein, Mutated Zea mays Bx8 protein sequence) MAASCGGRVVVFPFPFQGHFNPVMRLARALHARGVGITVFHTAGARAPDPADYPADYRFVPVPVEVAPELMASEDIAAIVTALNAACEAPFRDRLSALLSAADGEAGEAGGRVRCVLTDVSWDAVLSAARGLGVPALGVMTASAATFRVYMAYRTLVDKGYLPVREERKDDAVAELPPYRVKDLLRHETCDLEEFADLLGRVIAAARLSSGLIFHTFPFIEAGTLGEIRDDMSVPVYAVAPLNKLVPAATASLHGEVQADRGCLRWLDAQRARSVLYVSFGSMAAMDPHEFVELAWGLADAGRPFVWVVRPNLIRGFESGALPDGVEDRVRGRGVVVSWAPQEEVLAHPAVGGFFTHCGWNSTVEAISEGVPMVCHPRHGDQYGNARYVCHVWKVGTEVAGDQLERGEIKAAIDRLMGGSEEGEGIRKRMNELKIAADKGIDESAGSDLTNLVHLINSY | detectable activity | – | – | –
